Data taken from the supplement of paper PMC9112550, “Optimization of the antimicrobial peptide Bac7 by deep mutational scanning” (BMC Biology, 2022).

System: Escherichia coli TOP10
Assay: shrunken log2 fold change of peptide-encoding DNA abundance (4.5 h post-induction vs induction); higher = less antimicrobial activity (less host growth inhibition)
Details: time post-induction: 4.5 h; library: site-saturation at positions 5, 18, 19, 20
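Further: peptides expressed intracellularly from a pBAD plasmid library in pooled LB shake-flask culture, induced with 0.3% L-arabinose, DNA abundance read by NGS, three biological replicates, DESeq2 with apeglm shrinkage.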

Sequence	shrunken log2 fold change
RRIRKRPPRLPRPRPRPYDCPRP	-0.171
RRIRERPPRLPRPRPRPYLTPRP	-0.424
RRIRYRPPRLPRPRPRPGKRPRP	-0.0167
RRIRFRPPRLPRPRPRPVQFPRP	-0.652
RRIRLRPPRLPRPRPRPADFPRP	-0.0534
RRIRWRPPRLPRPRPRPMPMPRP	0.112
RRIRGRPPRLPRPRPRPVVIPRP	-0.253
RRIRNRPPRLPRPRPRPLCHPRP	-0.359
RRIRHRPPRLPRPRPRPQFGPRP	-0.184
RRIRCRPPRLPRPRPRPRSPPRP	0.636
RRIRDRPPRLPRPRPRPAFWPRP	-0.0581
RRIRGRPPRLPRPRPRPVWTPRP	0.674
RRIRVRPPRLPRPRPRPVYDPRP	-0.182
RRIRQRPPRLPRPRPRPYFHPRP	-0.563
RRIRDRPPRLPRPRPRPLTIPRP	-0.257
RRIRSRPPRLPRPRPRPEQKPRP	0.0179
RRIRNRPPRLPRPRPRPTCGPRP	0.073
RRIRDRPPRLPRPRPRPCHQPRP	-0.328
RRIRRRPPRLPRPRPRPDVMPRP	0.195
RRIRCRPPRLPRPRPRPCFHPRP	-0.597

Sequence	shrunken log2 fold change
RRIRTRPPRLPRPRPRPSGWPRP	-0.00504
RRIRDRPPRLPRPRPRPLEPPRP	0.239
RRIRKRPPRLPRPRPRPVFTPRP	-0.0937
RRIRHRPPRLPRPRPRPKRHPRP	0.0834
RRIRERPPRLPRPRPRPTKVPRP	0.0356
RRIRYRPPRLPRPRPRPWDRPRP	-0.103
RRIRSRPPRLPRPRPRPMHFPRP	0.0521
RRIRGRPPRLPRPRPRPDQQPRP	0.074
RRIRNRPPRLPRPRPRPNYLPRP	-0.354
RRIRGRPPRLPRPRPRPSCKPRP	0.319
RRIRFRPPRLPRPRPRPECTPRP	0.0551
RRIRMRPPRLPRPRPRPEWCPRP	0.234
RRIRSRPPRLPRPRPRPTRFPRP	0.2
RRIRNRPPRLPRPRPRPPKLPRP	0.0789
RRIRCRPPRLPRPRPRPPCQPRP	0.0248
RRIRKRPPRLPRPRPRPIMRPRP	-0.00968
RRIRDRPPRLPRPRPRPGHDPRP	0.207
RRIRKRPPRLPRPRPRPWTMPRP	0.00233
RRIRARPPRLPRPRPRPGWMPRP	-0.168
RRIRFRPPRLPRPRPRPRKPPRP	0.428

Sequence	shrunken log2 fold change
RRIRMRPPRLPRPRPRPIQPPRP	0.122
RRIRQRPPRLPRPRPRPQFWPRP	0.681
RRIRHRPPRLPRPRPRPEVWPRP	0.714
RRIRCRPPRLPRPRPRPMYNPRP	-0.535
RRIRSRPPRLPRPRPRPGDPPRP	0.353
RRIRVRPPRLPRPRPRPDRTPRP	-0.252
RRIRERPPRLPRPRPRPQLEPRP	-0.0385
RRIRARPPRLPRPRPRPMWRPRP	0.248
RRIRTRPPRLPRPRPRPISWPRP	-0.0406
RRIRSRPPRLPRPRPRPTDKPRP	-0.242
RRIRERPPRLPRPRPRPEPIPRP	-0.00736
RRIRTRPPRLPRPRPRPGHQPRP	-0.199
RRIRHRPPRLPRPRPRPPGAPRP	0.935
RRIRVRPPRLPRPRPRPKVPPRP	-0.00247
RRIRYRPPRLPRPRPRPLFIPRP	-0.683
RRIRPRPPRLPRPRPRPAEHPRP	0.214
RRIRVRPPRLPRPRPRPFDEPRP	-0.242
RRIRKRPPRLPRPRPRPRFPPRP	0.647
RRIRWRPPRLPRPRPRPGRWPRP	0.742
RRIRTRPPRLPRPRPRPPTHPRP	0.176
